Results on one molecule are retold here after patent publication US20010029022A1.

The assay addresses CDK2 kinase complex (cyclin not given) (UniProt P24941). Briefly: cell-based or functional assay.

B1: GST-HPV6b E7 (protein)
chain: MHGRHVTLKDIVLDLQPPDPVGLHCYEQLVDSSEDEVDEVDGQDSQPLKQHFQIVTCCCGCDSNVRLVVQCTETDIREVQQLLLGTLNIVCPICAPKT
Molecule B1 had a CDK2 histone kinase activity, fold activation of 15.8 fold.
